Target: the molecule itself
Test: native gel or EMSA; TS-actin and associated proteins purified on StrepTactin resin, eluted with 2 mM biotin, run at once on 4 to 16% native PAGE and blotted; with and without DSP cross-linking of cells before lysis; input also run

B1: Gl-14-3-3–HA (endogenously 3×HA C-terminally tagged Gl-14-3-3) (natural protein, Giardia lamblia, UniProt E2RU97 1-248, looked up)
chain: MAEAFTREDYVFMAQLNENAERYDEMVETMRKISGMEGELSDKERNLLSVAYKNVIGPRRAAWRIVSSIEAKEKGRQKPNAKRIEQIRVYRQKIEKELSDICNDILKLLQEQFVPRSTNADAKVFYYKMQGDYYRYLAEYSSGEDKEKIAGSALNAYNSAFEISQQLPPTHPIRLGLALNFSVFYYEILASPDRACELARKAFDAAITDLDKLTEESYKDSTLIMQLLRDNLNLWVTDSAGDDNAEEK
notes: Giardia lamblia 14-3-3 (Gl-14-3-3), the single 14-3-3 homolog, GL50803_6430; source: Giardia trophozoites, endogenously tagged (integrated copy), in lysate; not shown: 3xHA, C-terminal, kept
- stoichiometry N: 2
